Columns and labels:
[1] = biological target: human AXL (full length) (human) (UniProt P30530); test: flow cytometry, A431 cells pre-incubated with 10 µg/mL Gas6 (competitor)
[2] = biological target: human AXL (full length) (human) (UniProt P30530); test: flow cytometry, A431 cells, no Gas6
[3] = biological target: human AXL (full length) (human) (UniProt P30530); test: flow cytometry, A431 cells pre-incubated with 10 µg/mL Gas6 (competitor); value less accurate due to low binding

B1: IgG1-YW327.6S2 (antibody, from another filing, V domains shown)
VH: EVQLVESGGGLVQPGGSLRLSCAASGFSLSGSWIHWVRQAPGKGLEWVGWINPYRGYAYYADSVKGRFTISADTSKNTAYLQMNSLRAEDTAVYYCAREYSGWGGSSVGYAMDYWGQGTLVTVSS
VL: DIQMTQSPSSLSASVGDRVTITCRASQDVSTAVAWYQQKPGKAPKLLIYSASFLYSGVPSRFSGSGSGTDFTLTISSLQPEDFATYYCQQSYTTPPTFGQGTKVEIK
- fold change of EC50 after Gas6 pre-incubation against no Gas6 [1]: 21 fold
- maximal binding in presence of Gas6 (% of binding in absence of Gas6) [1]: 41%
- maximal binding in presence of Gas6 (% of binding without Gas6) [1]: 19%
- EC50 [2]: 0.09 µg/mL
- EC50 [3]: 1.9 µg/mL

From US20180326084A1
